Experimental data as given in US20240400614A1, “CLEAVABLE PEPTIDES AND METHODS OF USE THEREOF” (Bright Peak Therapeutics AG, priority 2023, published 2024).
Square brackets hold non-standard residues; d marks the D form. Ends that are not written are not given here. Tyr(3-NO2) = N[C@@H](Cc1ccc(O)c([N+](=O)[O-])c1)C(=O)O; Nle = CCCC[C@H](N)C(=O)O; 2Abz = Nc1ccccc1C(=O)O

What was measured:
Type in all cases: biochemical
MMP-9 = molecular target: T1, MMP-9 (Homo sapiens, UniProt P14780); test: FRET peptide cleavage efficiency with MMP-9 (standard pH 7.5; also pH 6.5); settings: for % cleavage MMP-9 t = 15 min: t = 15 min (Table 9); for % cleavage MMP-9 t = 60 min: t = 60 min (Table 9); for % cleavage MMP-9 t = 120 min: t = 120 min (Table 9)
T1 construct: purchased SIGMA PF024

MMP-2 = molecular target: T2, MMP-2 (Homo sapiens, UniProt P08253); test: FRET peptide cleavage efficiency with MMP-2
T2 construct: purchased SIGMA PF023
T2 sequence (P08253 110-660): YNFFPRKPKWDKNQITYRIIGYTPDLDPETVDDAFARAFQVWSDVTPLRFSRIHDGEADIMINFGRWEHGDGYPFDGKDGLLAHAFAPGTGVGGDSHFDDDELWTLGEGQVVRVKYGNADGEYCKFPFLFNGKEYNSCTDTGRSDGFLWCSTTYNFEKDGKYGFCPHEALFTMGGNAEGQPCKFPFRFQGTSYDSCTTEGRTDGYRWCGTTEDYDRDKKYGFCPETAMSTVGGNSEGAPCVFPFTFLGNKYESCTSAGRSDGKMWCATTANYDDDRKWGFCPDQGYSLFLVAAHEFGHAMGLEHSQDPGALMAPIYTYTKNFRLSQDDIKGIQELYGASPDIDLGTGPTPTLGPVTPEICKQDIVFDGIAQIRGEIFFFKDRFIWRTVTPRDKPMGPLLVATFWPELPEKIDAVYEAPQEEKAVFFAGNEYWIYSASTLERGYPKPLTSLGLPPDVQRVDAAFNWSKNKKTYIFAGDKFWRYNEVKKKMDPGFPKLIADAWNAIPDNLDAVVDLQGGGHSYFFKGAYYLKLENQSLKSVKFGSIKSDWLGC

uPA = uPA (Homo sapiens, UniProt P00749); test: FRET peptide cleavage efficiency with uPA; settings: 200 uM linker, 1 ug/ml protease, 37° C., buffer A pH 8.5
matriptase = molecular target: T3, matriptase (Homo sapiens, UniProt Q9Y5Y6); test: FRET peptide cleavage efficiency with matriptase; settings: 200 uM linker, 1 ug/ml protease, 37° C., buffer B pH 9.0
T3 construct: purchased R&D Systems 3946-SEB
T3 sequence (Q9Y5Y6 615-855 limits assumed): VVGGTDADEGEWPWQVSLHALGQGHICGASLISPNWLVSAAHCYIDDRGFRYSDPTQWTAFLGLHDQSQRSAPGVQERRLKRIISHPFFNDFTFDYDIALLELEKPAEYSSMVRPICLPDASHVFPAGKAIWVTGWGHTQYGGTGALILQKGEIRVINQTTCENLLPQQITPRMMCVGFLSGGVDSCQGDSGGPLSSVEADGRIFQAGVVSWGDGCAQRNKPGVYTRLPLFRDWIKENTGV

Kallikrein-3 = Kallikrein-3 (Homo sapiens, UniProt P07288); test: FRET peptide cleavage efficiency with Kallikrein-3; settings: peptide 200 uM, Kallikrein-3 2 μg/ml, 37° C., pH 8
MMP-7 = molecular target: T4, MMP-7 (Homo sapiens, UniProt P09237); test: FRET peptide cleavage efficiency with MMP-7 (standard pH 7.5; also pH 6.5); settings: for % cleavage MMP-7 t = 15 min: t = 15 min (Table 9); for % cleavage MMP-7 t = 60 min: t = 60 min (Table 9); for % cleavage MMP-7 t = 120 min: t = 120 min (Table 9)
T4 construct: purchased SIGMA CC1059
T4 sequence (P09237 95-267): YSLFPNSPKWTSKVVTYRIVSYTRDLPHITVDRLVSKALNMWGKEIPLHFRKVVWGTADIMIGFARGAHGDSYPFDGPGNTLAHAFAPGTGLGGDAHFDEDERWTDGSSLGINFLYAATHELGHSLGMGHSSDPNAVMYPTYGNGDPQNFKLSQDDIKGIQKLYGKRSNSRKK

[1] = t = 15 min, 200 uM linker, 1 ug/ml protease, 37° C., buffer C pH 7.5
[2] = t = 60 min, 200 uM linker, 1 ug/ml protease, 37° C., buffer C pH 7.5
[3] = t = 120 min, 200 uM linker, 1 ug/ml protease, 37° C., buffer C pH 7.5

Kallikrein-3, sequence (P07288 25-261, species assumed): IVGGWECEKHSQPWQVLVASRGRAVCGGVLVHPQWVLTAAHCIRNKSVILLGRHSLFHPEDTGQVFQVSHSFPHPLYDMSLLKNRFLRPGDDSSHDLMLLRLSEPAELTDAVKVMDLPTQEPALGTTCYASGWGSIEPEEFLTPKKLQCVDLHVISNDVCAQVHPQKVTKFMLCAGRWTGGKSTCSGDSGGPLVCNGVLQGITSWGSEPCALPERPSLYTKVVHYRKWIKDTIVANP
T1 sequence (P14780 94-707): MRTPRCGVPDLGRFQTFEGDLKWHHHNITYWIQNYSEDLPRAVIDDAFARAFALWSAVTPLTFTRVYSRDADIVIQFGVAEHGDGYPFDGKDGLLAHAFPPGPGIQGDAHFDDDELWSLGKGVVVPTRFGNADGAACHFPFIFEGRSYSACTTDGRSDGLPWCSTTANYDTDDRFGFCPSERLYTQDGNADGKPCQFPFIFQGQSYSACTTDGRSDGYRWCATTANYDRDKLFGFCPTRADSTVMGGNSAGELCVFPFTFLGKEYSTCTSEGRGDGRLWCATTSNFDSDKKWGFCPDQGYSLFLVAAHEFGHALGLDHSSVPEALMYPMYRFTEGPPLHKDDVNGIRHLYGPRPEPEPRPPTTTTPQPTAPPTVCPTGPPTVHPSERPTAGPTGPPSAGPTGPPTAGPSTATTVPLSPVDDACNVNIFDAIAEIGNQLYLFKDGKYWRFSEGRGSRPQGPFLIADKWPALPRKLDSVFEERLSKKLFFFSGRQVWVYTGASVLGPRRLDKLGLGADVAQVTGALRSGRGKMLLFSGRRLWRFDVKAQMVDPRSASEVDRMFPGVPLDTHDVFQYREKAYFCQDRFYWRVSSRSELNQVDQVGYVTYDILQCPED

Substance | % cleavage MMP-9 t = 15 min (MMP-9) [%] | % cleavage MMP-9 t = 60 min (MMP-9) [%] | % cleavage MMP-9 t = 120 min (MMP-9) [%] | % cleavage MMP-2 t = 15 min (MMP-2; t = 15 min (Table 9)) [%] | % cleavage MMP-2 t = 15 min (MMP-2; [1]) [%] | % cleavage MMP-2 t = 60 min (MMP-2; t = 60 min (Table 9)) [%] | % cleavage MMP-2 t = 60 min (MMP-2; [2]) [%] | % cleavage MMP-2 t = 120 min (MMP-2; t = 120 min (Table 9)) [%] | % cleavage MMP-2 t = 120 min (MMP-2; [3]) [%] | % cleavage uPA t = 15 min (uPA) [%] | % cleavage uPA t = 60 min (uPA) [%] | % cleavage uPA t = 120 min (uPA) [%] | % cleavage Matriptase t = 15 min (matriptase) [%] | % cleavage Matriptase t = 60 min (matriptase) [%] | % cleavage Matriptase t = 120 min (matriptase) [%] | Kallikrein-3 t = 1 h % cleavage (Kallikrein-3) [%] | Kallikrein-3 t = 3 h % cleavage (Kallikrein-3) [%] | Kallikrein-3 t = 6 h % cleavage (Kallikrein-3) [%] | Kallikrein-3 t = 8 h % cleavage (Kallikrein-3) [%] | % cleavage MMP-7 t = 15 min (MMP-7) [%] | other results
GSGSGSGS ([2Abz]GSGSGSGS[Tyr(3-NO2)]-NH2) [LNK064] | 0 | 0 | 0 | 0 | 0 | 0 | 0 | 0 | 0 | 0 | 0 | 0 | 0 | 0 | 0 | 0 | 0 | 0 | 0 | 0 | % cleavage MMP-7 t = 60 min (MMP-7): 0%; % cleavage MMP-7 t = 120 min (MMP-7): 0%
HSSKLQYFGKL ([2Abz]HSSKLQYFGKL[Tyr(3-NO2)]-NH2) [LNK061] | 0 | 0 | 0 | 23 | 23 | 74 | 74 | 100 | 100 | 0 | 0 | 0 | 0 | 0 | 0 | 0 | 0 | 0 | 0 | 0 | % cleavage MMP-7 t = 60 min (MMP-7): 0%; % cleavage MMP-7 t = 120 min (MMP-7): 0%
RGRRHSSKLQ ([2Abz]RGRRHSSKLQ[Tyr(3-NO2)]-NH2) [LNK052] | 0 | 0 | 0 | 1 | 1 | 2 | 2 | 4 | 4 | 0 | 0 | 0 | 60 | 100 | 100 | 8 | 31 | 55 | 67 | 0 | % cleavage MMP-7 t = 60 min (MMP-7): 0%; % cleavage MMP-7 t = 120 min (MMP-7): 0%
RRLNYSL ([2Abz]RRLNYSL[Tyr(3-NO2)]-NH2) [LNK074] |  |  |  |  | 1 |  | 5 |  | 9 | 0 | 0 | 0 | 2 | 6 | 10 | 23 | 59 | 87 | 96 |  | 
RSSYYSL ([2Abz]RSSYYSL[Tyr(3-NO2)]-NH2) [LNK076] |  |  |  |  | 19 |  | 69 |  | 92 | 0 | 0 | 0 | 0 | 0 | 0 | 0 | 0 | 0 | 0 |  | 
SS-Nle-YSSAG ([2Abz]SS[Nle]YSSAG[Tyr(3-NO2)]-NH2) [LNK081] |  |  |  |  | 3 |  | 11 |  | 19 | 0 | 0 | 0 | 0 | 0 | 0 | 27 | 62 | 87 | 94 |  | 
SSQYSSPG ([2Abz]SSQYSSPG[Tyr(3-NO2)]-NH2) [LNK069] |  |  |  |  | 1 |  | 6 |  | 13 | 0 | 0 | 0 | 0 | 0 | 0 | 6 | 16 | 31 | 40 |  | 
